Source: patent US20150267177A1
Read-outs that look alike come from different tables or passages of the source.

Experiments:
[1] = tested on: Act-PB1 (MDH activator protein Act of Bacillus methanolicus PB1)
[2] = target: T1, Mdh-MGA3 (methanol dehydrogenase Mdh of Bacillus methanolicus MGA3, encoded on plasmid pBM19)
T1 chain: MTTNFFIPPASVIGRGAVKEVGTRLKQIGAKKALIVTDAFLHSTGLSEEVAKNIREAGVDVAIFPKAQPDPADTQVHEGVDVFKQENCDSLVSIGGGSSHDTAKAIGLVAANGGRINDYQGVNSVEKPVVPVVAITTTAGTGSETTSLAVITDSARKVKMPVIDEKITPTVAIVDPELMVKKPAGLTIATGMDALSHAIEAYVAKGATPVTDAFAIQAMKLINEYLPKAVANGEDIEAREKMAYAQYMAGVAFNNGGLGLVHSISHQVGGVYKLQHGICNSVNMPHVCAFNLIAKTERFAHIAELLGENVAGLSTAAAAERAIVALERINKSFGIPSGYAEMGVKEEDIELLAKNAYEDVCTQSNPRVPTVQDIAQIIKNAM

[3] = target: T2, Act-MGA3 (MDH activator protein Act of Bacillus methanolicus MGA3)
T2 sequence (Q8KP10 2-185, looked up): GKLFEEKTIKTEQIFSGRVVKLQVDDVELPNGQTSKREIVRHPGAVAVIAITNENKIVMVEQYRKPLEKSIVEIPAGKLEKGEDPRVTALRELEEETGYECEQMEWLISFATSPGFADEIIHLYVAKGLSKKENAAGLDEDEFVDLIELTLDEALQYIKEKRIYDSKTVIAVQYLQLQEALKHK

[4] = target: T3, Mdh3-MGA3 (methanol dehydrogenase Mdh3 of Bacillus methanolicus MGA3) (Bacillus methanolicus MGA3); assay: cell-based or functional assay
T3 sequence: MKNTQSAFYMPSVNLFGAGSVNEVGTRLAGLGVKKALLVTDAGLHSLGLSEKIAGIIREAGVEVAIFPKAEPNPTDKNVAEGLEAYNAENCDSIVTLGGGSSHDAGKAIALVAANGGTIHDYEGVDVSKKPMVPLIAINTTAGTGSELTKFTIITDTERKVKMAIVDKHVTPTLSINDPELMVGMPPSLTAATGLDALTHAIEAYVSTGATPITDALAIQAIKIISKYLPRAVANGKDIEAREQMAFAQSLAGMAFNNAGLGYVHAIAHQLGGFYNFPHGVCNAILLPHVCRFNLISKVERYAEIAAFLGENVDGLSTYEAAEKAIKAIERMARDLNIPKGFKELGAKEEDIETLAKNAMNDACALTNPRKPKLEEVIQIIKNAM

[5] = target: the MGA3 MDHs; assay: cell-based or functional assay
[6] = target: T4, Mdh2-MGA3 (methanol dehydrogenase Mdh2 of Bacillus methanolicus MGA3) (Bacillus methanolicus MGA3); assay: cell-based or functional assay
T4 sequence: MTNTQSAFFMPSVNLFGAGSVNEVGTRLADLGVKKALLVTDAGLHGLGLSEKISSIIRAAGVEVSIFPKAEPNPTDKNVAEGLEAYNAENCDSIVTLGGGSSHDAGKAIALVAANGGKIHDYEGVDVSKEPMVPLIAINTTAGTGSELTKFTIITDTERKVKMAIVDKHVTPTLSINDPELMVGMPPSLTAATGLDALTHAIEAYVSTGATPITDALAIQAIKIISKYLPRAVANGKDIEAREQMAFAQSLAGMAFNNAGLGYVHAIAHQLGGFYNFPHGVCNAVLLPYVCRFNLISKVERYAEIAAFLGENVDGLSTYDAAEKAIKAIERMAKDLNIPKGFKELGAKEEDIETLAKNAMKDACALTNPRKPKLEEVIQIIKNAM

[7] = target: T5, Mdh-MGA3 (methanol dehydrogenase Mdh of Bacillus methanolicus MGA3, encoded on plasmid pBM19) (Bacillus methanolicus MGA3) (UniProt P31005); assay: cell-based or functional assay
T5 sequence: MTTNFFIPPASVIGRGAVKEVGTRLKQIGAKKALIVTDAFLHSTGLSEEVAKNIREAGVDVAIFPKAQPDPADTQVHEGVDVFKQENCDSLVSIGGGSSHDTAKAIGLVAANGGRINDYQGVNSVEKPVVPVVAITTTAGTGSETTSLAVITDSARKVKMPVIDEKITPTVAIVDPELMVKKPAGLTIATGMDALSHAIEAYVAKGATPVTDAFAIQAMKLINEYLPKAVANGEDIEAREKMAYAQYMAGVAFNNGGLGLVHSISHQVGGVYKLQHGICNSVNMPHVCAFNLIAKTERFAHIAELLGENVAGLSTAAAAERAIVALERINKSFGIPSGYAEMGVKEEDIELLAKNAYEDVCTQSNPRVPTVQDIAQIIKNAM

[8] = target: T6, Act-PB1 (MDH activator protein Act of Bacillus methanolicus PB1); remark: listed apart in the source
T6 sequence (Q8KP10 2-185, looked up): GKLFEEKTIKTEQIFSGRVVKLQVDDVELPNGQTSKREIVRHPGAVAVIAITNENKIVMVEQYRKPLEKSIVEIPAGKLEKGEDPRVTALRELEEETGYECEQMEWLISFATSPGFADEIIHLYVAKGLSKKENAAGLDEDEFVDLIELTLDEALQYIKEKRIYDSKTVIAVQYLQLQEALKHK

Molecule: Mdh-PB1 (methanol dehydrogenase Mdh of Bacillus methanolicus PB1, encoded on plasmid pBM20)
- Km for methanol in the presence of Act (20 ug MDH + 20 ug Act) [1]: 13.9 mM
- Vmax with methanol in the presence of Act (20 ug MDH + 20 ug Act) [1]: 0.2 U/mg
- Vmax with methanol, with Act against single enzyme assay [1]: The Vmax values were increased 4-6-fold compared to in the single enzyme assays
- fold reduction of Km,MeOH by Act [1]: substantially reduced (16-fold and 70-fold, respectively) in the presence of Act

Molecule: Mdh1-PB1 (methanol dehydrogenase Mdh1 of Bacillus methanolicus PB1)
- Km for methanol in the presence of Act (20 ug MDH + 20 ug Act) [1]: 2.3 mM
- Vmax with methanol in the presence of Act (20 ug MDH + 20 ug Act) [1]: 0.056 U/mg
- Vmax with methanol, with Act against single enzyme assay [1]: The Vmax values were increased 4-6-fold compared to in the single enzyme assays
- fold reduction of Km,MeOH by Act [1]: substantially reduced (16-fold and 70-fold, respectively) in the presence of Act

B1: B. subtilis NudF protein (nudF gene product, ADP-ribose pyrophosphatase subfamily of Nudix hydrolases) (protein)
chain: MKSLEEKTIAKEQIFSGKVIDLYVEDVELPNGKASKREIVKHPGAVAVLAVTDEGKIIMVKQFRKPLERTIVEIPAGKLEKGEEPEYTALRELEEETGYTAKKLTKITAFYTSPGFADEIVHVFLAEELSVLEEKRELDEDEFVEVMEVTLEDALKLVESREVYDAKTAYAIQYLQLKEALQAQK
- fold stimulation of Mdh activity, ethanol as substrate [2]: Mdh activity was stimulated equally well (about 8-fold) with NudF as with Act

B2: Mdh-MGA3 (methanol dehydrogenase Mdh of Bacillus methanolicus MGA3, encoded on plasmid pBM19) (protein)
chain: MTTNFFIPPASVIGRGAVKEVGTRLKQIGAKKALIVTDAFLHSTGLSEEVAKNIREAGVDVAIFPKAQPDPADTQVHEGVDVFKQENCDSLVSIGGGSSHDTAKAIGLVAANGGRINDYQGVNSVEKPVVPVVAITTTAGTGSETTSLAVITDSARKVKMPVIDEKITPTVAIVDPELMVKKPAGLTIATGMDALSHAIEAYVAKGATPVTDAFAIQAMKLINEYLPKAVANGEDIEAREKMAYAQYMAGVAFNNGGLGLVHSISHQVGGVYKLQHGICNSVNMPHVCAFNLIAKTERFAHIAELLGENVAGLSTAAAAERAIVALERINKSFGIPSGYAEMGVKEEDIELLAKNAYEDVCTQSNPRVPTVQDIAQIIKNAM
- Km for methanol in the presence of Act (20 ug MDH + 20 ug Act) [3]: 12 mM
- MDH catalytic activity with methanol as substrate, at relative concentrations of the proteins of 1:2-20:1 [3]: Full activation was reached at a relative concentration of between 1:1 and 5:1 and no inhibition due to relative high activator concentrations was observed
- Vmax with methanol in the presence of Act (20 ug MDH + 20 ug Act) [3]: 0.5 U/mg
- Vmax with methanol, with Act against single enzyme assay [3]: The Vmax values were increased 4-6-fold compared to in the single enzyme assays
- fold reduction of Km,MeOH by Act [3]: dramatically reduced (17-fold) to 12 mM for Mdh-MGA3 when Act was added to the reaction
- fold stimulation of Mdh activity, ethanol as substrate [3]: Mdh activity was stimulated equally well (about 8-fold) with NudF as with Act
- methanol dehydrogenase activity in lysates of recombinant B. subtilis 168, methanol or ethanol as substrate, 50 C [3]: In all cases, methanol dehydrogenase activities were significantly stimulated by Act

B3: Mdh2-MGA3 (methanol dehydrogenase Mdh2 of Bacillus methanolicus MGA3) (protein)
chain: MTNTQSAFFMPSVNLFGAGSVNEVGTRLADLGVKKALLVTDAGLHGLGLSEKISSIIRAAGVEVSIFPKAEPNPTDKNVAEGLEAYNAENCDSIVTLGGGSSHDAGKAIALVAANGGKIHDYEGVDVSKEPMVPLIAINTTAGTGSELTKFTIITDTERKVKMAIVDKHVTPTLSINDPELMVGMPPSLTAATGLDALTHAIEAYVSTGATPITDALAIQAIKIISKYLPRAVANGKDIEAREQMAFAQSLAGMAFNNAGLGYVHAIAHQLGGFYNFPHGVCNAVLLPYVCRFNLISKVERYAEIAAFLGENVDGLSTYDAAEKAIKAIERMAKDLNIPKGFKELGAKEEDIETLAKNAMKDACALTNPRKPKLEEVIQIIKNAM
- Km for methanol in the presence of Act (20 ug MDH + 20 ug Act) [3]: 200 mM
- Vmax with methanol in the presence of Act (20 ug MDH + 20 ug Act) [3]: 0.15 U/mg
- Vmax with methanol, with Act against single enzyme assay [3]: The Vmax values were increased 4-6-fold compared to in the single enzyme assays
- change of Km,MeOH by Act [3]: remained essentially the same as when tested without Act
- methanol dehydrogenase activity in lysates of recombinant B. subtilis 168, methanol or ethanol as substrate, 50 C [3]: In all cases, methanol dehydrogenase activities were significantly stimulated by Act

B4: Mdh3-MGA3 (methanol dehydrogenase Mdh3 of Bacillus methanolicus MGA3) (protein)
chain: MKNTQSAFYMPSVNLFGAGSVNEVGTRLAGLGVKKALLVTDAGLHSLGLSEKIAGIIREAGVEVAIFPKAEPNPTDKNVAEGLEAYNAENCDSIVTLGGGSSHDAGKAIALVAANGGTIHDYEGVDVSKKPMVPLIAINTTAGTGSELTKFTIITDTERKVKMAIVDKHVTPTLSINDPELMVGMPPSLTAATGLDALTHAIEAYVSTGATPITDALAIQAIKIISKYLPRAVANGKDIEAREQMAFAQSLAGMAFNNAGLGYVHAIAHQLGGFYNFPHGVCNAILLPHVCRFNLISKVERYAEIAAFLGENVDGLSTYEAAEKAIKAIERMARDLNIPKGFKELGAKEEDIETLAKNAMNDACALTNPRKPKLEEVIQIIKNAM
- Km for methanol in the presence of Act (20 ug MDH + 20 ug Act) [3]: 150 mM
- Vmax with methanol in the presence of Act (20 ug MDH + 20 ug Act) [3]: 0.45 U/mg
- Vmax with methanol, with Act against single enzyme assay [3]: The Vmax values were increased 4-6-fold compared to in the single enzyme assays
- change of Km,MeOH by Act [3]: remained essentially the same as when tested without Act
- methanol dehydrogenase activity in lysates of recombinant B. subtilis 168, methanol or ethanol as substrate, 50 C [3]: In all cases, methanol dehydrogenase activities were significantly stimulated by Act

B5: Act-MGA3 (MDH activator protein Act of Bacillus methanolicus MGA3) (protein, UniProt Q8KP10 2-185, looked up)
Methanol dehydrogenase activator: GKLFEEKTIKTEQIFSGRVVKLQVDDVELPNGQTSKREIVRHPGAVAVIAITNENKIVMVEQYRKPLEKSIVEIPAGKLEKGEDPRVTALRELEEETGYECEQMEWLISFATSPGFADEIIHLYVAKGLSKKENAAGLDEDEFVDLIELTLDEALQYIKEKRIYDSKTVIAVQYLQLQEALKHK
- Mdh activity in vitro, crude extract of E. coli co-expressing Act, 37 C, +Act [4]: 327 mU/mg
- Mdh activity in vitro, crude extract of E. coli co-expressing Act, 45 C, +Act [4]: 867 mU/mg
- Mdh activity in vivo, E. coli cells co-expressing Act, 37 C, +Act [4]: 11 mU/mg
- Mdh activity in vivo, E. coli cells co-expressing Act, 42 C, +Act [4]: 24 mU/mg
- fold increase of catalytic activity, ethanol as substrate [5]: 6 to 8 fold
- fold induction of MDH activity, methanol as substrate, MDH:Act 1:1 [5]: 5 to 7 fold
- Mdh activity in vitro, crude extract of E. coli co-expressing Act, 37 C, +Act [6]: 672 mU/mg
- Mdh activity in vitro, crude extract of E. coli co-expressing Act, 45 C, +Act [6]: 1910 mU/mg
- Mdh activity in vivo, E. coli cells co-expressing Act, 37 C, +Act [6]: 9 mU/mg
- Mdh activity in vivo, E. coli cells co-expressing Act, 42 C, +Act [6]: 11.3 mU/mg
- Mdh activity in vitro, crude extract of E. coli co-expressing Act, 37 C, +Act [7]: 464 mU/mg
- Mdh activity in vitro, crude extract of E. coli co-expressing Act, 45 C, +Act [7]: 1260 mU/mg
- Mdh activity in vivo, E. coli cells co-expressing Act, 37 C, +Act [7]: 1 mU/mg
- Mdh activity in vivo, E. coli cells co-expressing Act, 42 C, +Act [7]: 1 mU/mg

B6: Mdh2-PB1 (methanol dehydrogenase Mdh2 of Bacillus methanolicus PB1) (protein)
chain: MTNTQSIFYIPSVNLFGPGSVNEVGTRLAGLGVKKALLVTDAGLHGLGLSEKIASIIREAGVEVLIFPKAEPNPTDKNVAEGLEVYNAENCDSIVTLGGGSSHDAGKGIALVAANGGTIYDYEGVDKSKKPMVPLIAINTTAGTGSELTRFTIITDTERKVKMAIVDKHVTPTLSINDPELMVGMPPSLTAATGLDALTHAIEAYVSTAATPITDALAIQAIKIISKYLPRAFANGKDMEAREQMAFAQSLAGMAFNNASLGYVHAIAHQFGGFYNFPHGVCNAILLPHVCRFNLISKVERFAEIAALLGENVAGLSTREAAEKGIKAIERMAKDLNIPRGFKELGAKEEDIVTLAENAMKDATALTNPRKPKLEEVIQIIKNAM
- Km for methanol in the presence of Act (20 ug MDH + 20 ug Act) [8]: 36 mM
- Vmax with methanol in the presence of Act (20 ug MDH + 20 ug Act) [8]: 0.24 U/mg
- Vmax with methanol, with Act against single enzyme assay [8]: The Vmax values were increased 4-6-fold compared to in the single enzyme assays
- fold reduction of Km,MeOH by Act [8]: moderately (4-fold) reduced by Act for Mdh2-PB1
